Data: the DeepSol protein solubility set

experiment: soluble on expression in E. coli; label from the status in PepcDB or PDB records

Which “soluble on expression in E. coli” value does the source give for “EAEAISCGSPPPILNGRISYYSTPIAVGTVIRYSCSGTFRLIGEKSLLCITKDKVDGTWDKPAPKCQYFNKYSSCPEPIVPGGYKIRGSTPYRHGDSVTFACKTNFSMNGNKSVWCQANNMWGPTRLPTCVSVFPLEQKLIS” here?
The value was “soluble”.

For “MGSDKIHHHHHHMSLQSGEWREQIDEVDAALIDEFQSDFPIQERPFEAVGDALGVSAGTALDRVKTLRDDGIFRRFGPVLNPPVIGSSTLAAVSAPEDRFDEVAEIINGYRQVNHNYARDHEWNMWFVVTAGSRQRRDEILAEIEERTGCSVLVLPMLTDYYIDLEFPVVNGDRFARESLETTDATATRISEDAAADLSELDRRLLLEIQSGFPLVATPYRDVADAVDADVSEVLSAIKRLQRTGCIKRIGCVVNHIVTGFDNNCMVVWDVPDDALDERGQAVGELPYVTLCYHRPRRPEQDWQYNLFTMIHGREADIVDEKIDELATDHLPYDHGRLYSTETLKQTGARYDDIVGQ”, which “soluble on expression in E. coli” value is on record?
Its value is “not soluble”.

With “MQTWQLPEHIADVLPTNARQLESAREQLLALFRVHGYELVQPPLMEYAHSLLTHIDAGLSLKTILVTDRLSGRQLGIRADITPQVARIDAHLLSANQGINRLCYAGPVLHAQPDGLLNMREPLQAGAEMYGFADIRGDIELIDLMLKSMKIADMGKVLLSLGHIGIFRALSDAAHLDAGQSATLLALMQDKDTGAVEAQVKAWKLDGMWAKAFSLLPRLYGGREVLSDARGRLPDLSAVGGALGELQAVCDAFPDCEIHIDLSELRVDNYHTGLLYAAYAADFHDAVARGGRYDGLGGYFGRARPATGFSFDLRSFIGRLPAIERQPAVLVDAEDAEAAHEAVEALREQGQCVVIDYGIGHNVSEELAGRLKKTDGVWQVVKR” as the sequence, how does the “soluble on expression in E. coli” value read?
Its value is “not soluble”.

With “MADVLTELPGVGPSTADKLIEGGYLDFMKIATATIGELTDIEGISEKAAAKMIMAARDLCDLGFKSGVELLKQRQSVWRLSTGSTELDTVLAGGIESQSVTEFAGMFGSGKTQIMHQTCVNLQMREKIFADLEGVVEEELEAPKAVYIDTEGTFRPERVVQMAEGAGIDGQTVLDNTFVARAYNSDMQMLFAEKIEDLIKGGNNIKLVIIDSLTSTFRNEFTGRGKLAERQQKLGRHMATLNKLADLYNCIVLVTNQVAAKPDAYFGVAEQAIGGHVVGHAATFRFFLRKSKGDKRVAKLYDSPHLPDSEAVFRITEKGIQD” as the sequence, how does the “soluble on expression in E. coli” value read?
Its value is “soluble”.

Which “soluble on expression in E. coli” value does the source give for “MAHTSRHNEFSIGASASLWECMLNQWLGRLYQNQDAHTGLQFEARIAQRQSLVKQLHERQLDLLITTEAPKMDEFSSQLLGYFTLALYTSAPSKLKGDLNYLRLEWGPDFQQHEAGLIGADEVPILTTSSAELAQQQIAMLNGCTWLPVSWARKKGGLHTVVDSTTLSRPLYAIWLQNSDKNALIRDLLKINVLDEVY” here?
Its value is “not soluble”.

Which “soluble on expression in E. coli” value does the source give for “MGSDKIHHHHHHMAKFQSYVICTSPRSGSTLLCNMLAATGVAGKPKSYFHHGSITDWLSYLNLDINPSLPESDLLAAIFEAAVETGRNGTGLFGLRLQRHSFDLFVEKLAVLYPTLASDRQRIEAAFGSTLFIHLTRLDKVQQAVSYVKAQQTGLWHRAPDGTELERLSAPRDPIYDAAKIHASYDEFIQYDRAWQSWFDMQGIQPLRITYEALCADPIASLKDVLVQLGVNGEAASSVVPGTAKLADGINQSWETRFRTEHLHSDPL” here?
Its value is “not soluble”.

Which “soluble on expression in E. coli” value does the source give for “MSLNFTALDFETANTHKTSICAVGMAIVEDGKVVKTISKLIKPVPDFYSYWNVQIHGITPDMTADAPYFIDVWQELKQYIDYSTLVAHNAAFDVGALRSILTTHEVSFPKTDYFCSCSVSRKVFKEIENHKLSTVCRHIDVPLNHHEAESDAIGAAQIIIKAGERLGANSIEELMAMLKMKLKVEGHHHHHH” here?
The value was “not soluble”.

Which “soluble on expression in E. coli” value does the source give for “GHMYEVDHADVYDLFYLGRGKDYAAEASDIADLVRSRTPEASSLLDVACGTGTHLEHFTKEFGDTAGLELSEDMLTHARKRLPDATLHQGDMRDFRLGRKFSAVVSMFSSVGYLKTTEELGAAVASFAEHLEPGGVVVVEPWWFPETFADGWVSADVVRRDGRTVARVSHSVREGNATRMEVHFTVADPGKGVRHFSDVHLITLFHQAEYEAAFTAAGLRVEYLEGGPSGRGLFVGVPA” here?
Its value is “soluble”.

Which “soluble on expression in E. coli” value does the source give for “MPQFTTARRARHRAEQMFALVADVEKYPQFLPMCEALSIRSRKERDGKTLLIADMTVGYKLIRETFTSQVLLKPDENIIDVKYIDGPFRYLDNRWTFRPTDGGAQCDVEFFIDYEFKSRTLGLLMGTMFDLAFKKFSEAFEKRADQIYGLGELEHHHHHH” here?
The value was “soluble”.

Which “soluble on expression in E. coli” value does the source give for “MMITSVEKDTKNRGMLSVFIDEKYAFSIPEEDYFRLCLYDKKELSSDEIEEIKKGVSQRTAKYKAVKYLSYRYMTEAELSQKLRKDGYDEDVILNVVTELKSMGYINDLIYAQKYVYDRIKLKPKAKKMLKRELNQKGVSDEIADQVLSELDFDEDVVIERLIRKKFGKYDMKDPKIQKRIYSFLLHRGFDFENIKRVLRTITHLD” here?
Its value is “soluble”.

Which “soluble on expression in E. coli” value does the source give for “MGSDKIHHHHHHMNSKIYYFSGTGNSLVVSNILKETLNGSKEVIPLAIHRKENNIDINEDILVIVFPVYFADVPDIVKSFVEKLNFNINTHIYAIATCNGVAGHSLFTIDKLLKKRGKKLSAGFLINMPGNALITPPDVEEERLKNQTNRVAEIAKCINNLEIGNIEGKNNLKSHIDSVVLRLVGKNMQIATTKFFAENKCNGCGTCKRVCPVENISIVDKKPKWGNECERCLACFHWCPKEAINVKKSFLTNRKKYHHPDITVKDIFLDK” here?
Its value is “not soluble”.

For “MLVVPAIDLFRGKVARMIKGRKENTIFYEKDPVELVEKLIEEGFTLIHVVDLSNAIENSGENLPVLEKLSEFAEHIQIGGGIRSLDYAEKLRKLGYRRQIVSSKVLEDPSFLKSLREIDVEPVFSLDTRGGRVAFKGWLAEEEIDPVSLLKRLKEYGLEEIVHTEIEKDGTLQEHDFSLTKKIAIEAEVKVLAAGGISSENSLKTAQKVHTETNGLLKGVIVGRAFLEGILTVEVMKRYAR”, which “soluble on expression in E. coli” value is on record?
Its value is “soluble”.

For “MCICPNRQTAASVGQRYGEPVVLRVDAGRMHRNGLPFFKADNGVWLTAQVPAAFLTRPRLEHHHHHH”, which “soluble on expression in E. coli” value is on record?
The value was “not soluble”.

Which “soluble on expression in E. coli” value does the source give for “MADETIAIVDADATAETRSLLSYLDGVRGEGILFGHQHTTSFGLTTGPTDGTTSDVKNVTGDFPAVFGWDTLIIEGNERPGLAENTRDENIALFADYIRKADAIGGVNTVSAHVENFVTGGSFYDTSGDTLRAVLPGGSHHAELVAYLDDIAELADASRRDDGTLIPIVFRPWHENAGSWFWWGAAYGSPGEYQELYRFTVEYLRDVKGVSNFLYAWGPGGGFGGNRDVYLRTYPGDAFVDVLGLDTYDSTGSDAFLAGLVADLRMIAEIADEKGKVSAFTEFGVSGGVGTNGSSPAQWFTKVLAAIKADPVASRNAYMETWRNADAGQHFVPVPGDALLEDFQAYAADPFTLFASEVTGAFDRTVAAAPAQPVVHIASPADGARVASAPTTVRVRVGGTDVQSVTVEVAQGGTVVDTLDLAYDGALWWTAPWSPTSAQLDNSTYTVTATATTAAGTLDVTNEVAAALEHHHHHH” here?
The value was “soluble”.

With “MGSDKIHHHHHHLSADHNAFRRALTERWGKAFGEPVIHEDPRTRSLCFGAPGVQSSMRTSDPLELDLPYTRAMMSFQLFCPDPKDILIVGLGGGSLSKYCFHKFPSARVTTVEIDERVIALRDAFFIPPESERFRIVHADAAAYLPDKVGLADVILLDGFDASGLPASLSSQYFYDCCHAALRDEGVLVANLLSSDPRLGAHLDRIHRACHGKLFRTMARREGNTIAIGIRQATWPGWPDLYARAEAITASTGLDLCRYVKKMERHHRVEPVSEHPSSDTLAVEQNR” as the sequence, how does the “soluble on expression in E. coli” value read?
Its value is “not soluble”.

Which “soluble on expression in E. coli” value does the source give for “MSLDQREILQKFLDEAQSKKITKEEFANEFLKLKRQSTKYKADKTYPTTVAEKPKNIKKNRYKDILPYDYSRVELSLITSDEDSSYINANFIKGVYGPKAYIATQGPLSTTLLDFWRMIWEYSVLIIGMACMEYEMGKKKCERYWAEPVEMQLEFGPFSVSCEAEKRKSDYIIRTLKVKFNSETRTIYQFHYKNWPDHDVPSSIDPILELIWDVRCYQEDDSVPICIHCSAGCGRTGVICAIDYTWMLLKDGIIPENFSVFSLIREMRTQRPSLVQTQEQYELVYNAVLELFKRQMDVIRDKHSGTESQAKHCIPEKNHTLQADSYSPNLPKSTTKAAKMMNQQRTKMEIKESSSFDFRTSEISAKEELVLHPAKSSTSFDFLELNYSFDKNADTTMKWQTKAFPIVGEPLQEGHHHHHH” here?
Its value is “not soluble”.

Which “soluble on expression in E. coli” value does the source give for “MHHHHHHGSKFKGSTFGRLVRIEFDILRLGELKIDDLSEFDTSEIKLEIKATSSGIKLVGVWEGDIEKVGEAIKKALEESIKLRERILRKMKSKVERIRKALLEMGFREEQFGYGEAVKFVKKVGDFEIAIIVSSREDIVRVEVYGEGNRKIIAPELEAFFESVDIEEIEVYDIEEEGREEKVVINLELPKSDEKPEKRITEAVKILENILMA” here?
The value was “soluble”.

Which “soluble on expression in E. coli” value does the source give for “MGSDKIHHHHHHMTDVHASTQALKPARLLADSPSRFPGESAEYRRARNDLLVEEIELRRHIERVAAQRRALPAGGVVPEDYRFMGEAGPVALSEMFGAHDTLVTYNWMFGPQRVRPCPMCTSLLSAYDGEMPDILQRVAFAVIARAPIERLVAFGKERGWRHLRLYSSGGNSFNRDYAAEDPAGDDHPAFNVFTRSGGTVRHFWAEEMGPSTADPGQDPRGAPDVMPIWTVLDMTPGGRGTDWYPKLEYDTAPG” here?
Its value is “not soluble”.

Which “soluble on expression in E. coli” value does the source give for “PRVVFIDEQSGEYAVDAQDGQSLMEVATQNGVPGIVAECGGSCVCATCRIEIEDAWVEIVGEANPDENDLLQSTGEPMTAGTRLSCQVFIDPSMDGLIVRVPLPA” here?
Its value is “soluble”.

Which “soluble on expression in E. coli” value does the source give for “NGFQKEIRGQLLNVAPHAEIGYIDNTDTDWRNLLRFTENRKGILAAAPYVSNQALLANAGEIRGVQMRGILPSEERKVVEYGDKMPAGKFEDLIPGEFDIILGVGLAEALGAEVGNKVTVITPEGNVTPAGVVPRLKQFTVVGLVKTGVYEVDNSLAMTHIQDARVLYRLDKEVAGLRLKLADPQNAPALTATLIPEAQRDAVWVRDWTYSNRSYFEAVELEKR” here?
The value was “soluble”.

With “MKDNEIISLFELRDEHAIEALSDKYHPYCYKIAWNLLTNKEDSEECLNDTWFSVWSLIPPKKPSVLSHFCGRITRNLSIDRLRKKYADRRPDLHMADVLGEMDHLSVTYTIEDQLAEKELLEIINDFLGKMNAEDRDIFVRRYWFFDSIAAIAKRHAMSVGSVKMNLYRSRKKLLKVLKKEGKHL” as the sequence, how does the “soluble on expression in E. coli” value read?
Its value is “not soluble”.

For “ASGRRAPRTGLLELRCGAGSGAGGERWQRVLLSLAEDALTVSPADGEPGPEPEPAQLNGAAEPGAAPPQLPEALLLQRRRVTVRKADAGGLGISIKGGRENKMPILISKIFKGLAADQTEALFVGDAILSVNGEDLSSATHDEAVQALKKTGKEVVLEVKYMKEVSPYFKNSAGGTSVGWDSPPASPLQRQPSSPGPQPRNLSEAKHVSLKMAYVSRRCTPTDPEPRYLEICAADGQDAVFLRAKDEASARSWAGAIQAQIGT”, which “soluble on expression in E. coli” value is on record?
Its value is “soluble”.

With “MGSDKIHHHHHHMIKALNIVTKTGTELQGALFKAAHATTVLIAITGVHGNFYSNPFYVNIGKTLMAAGIDFIYAQTRDAFNQVVSLNHLTGKKELVGSWSEQFDDANEDIAAYLSYAEENQYQHIILGGHSLGANKVIYYLANHADVNVTKFLLLSPANLKRLTDMVSLSERNIIQKQIAAGNSNQLLPFELFGWLPCTAKTADQWLNSGILDNVHSDLRADFSQIERIRLSGAMVIGTLDTFTYGDPIKYLKTINAHFLSHAENDLVFIQKTGHTYQNKDQKLANEILKLIKNWSLGGN” as the sequence, how does the “soluble on expression in E. coli” value read?
Its value is “not soluble”.

For “MTAAEHGLHAPAYAWSHNGPFETFDHASIRRGYQVYREVCAACHSLDRVAWRTLVGVSHTNEEVRNMAEEFEYDDEPDEQGNPKKRPGKLSDYIPGPYPNEQAARAANQGALPPDLSLIVKARHGGCDYIFSLLTGYPDEPPAGVALPPGSNYNPYFPGGSIAMARVLFDDMVEYEDGTPATTSQMAKDVTTFLNWCAEPEHDERKRLGLKTVIILSSLYLLSIWVKKFKWAGIKTRKFVFNPPKPRK”, which “soluble on expression in E. coli” value is on record?
Its value is “soluble”.
